# Reference: patent publication US20050272636A1, “Treatment and diagnosis of a reproductive disorder by measuring or inhibiting interferon-gamma” (Adelaide Research & Innovation Pty Ltd., priority 2002, published 2005)
# B1: rIFNγ: recombinant mouse IFNγ (R&D Systems) (protein, UniProt P01580 23-155, looked up)
# Interferon gamma: HGTVIESLESLNNYFNSSGIDVEEKSLFLDIWRNWQKDGDMKILQSQIISFYLRLFEVLKDNQAISNNISVIESHLITTFFSNSKAKKDAFMSIAKFEVNNPQVQRQAFNELIRVVHQLLPESSLRKRKRSRC
# Assays:
# [1] = system: murine uterine epithelial cells; experiment: Effect of rIFNγ and rTGFβ on GM-CSF production in cultured uterine epithelial cells (Example 2); format: cell-based, mouse
# Procedure: Uterine Epithelial Cell Cultures. Uterine epithelial cells prepared as previously described (Robertson et al., Biol Reprod 46:1069-1079 (1992)) were pooled from 4-6 estrous C57B1/6 or C57B1/6×Balb/c F1 mice and plated in 1 ml culture wells (Nunc, Roskilde, Germany) at 1-2×10^5 cells per ml in 500 μl of Dulbecco's modified Eagles medium containing 10% FCS, […] streptomycin sulphate and […] benzyl penicillin (DMEM +penicillin). After 4 h incubation at 37° C. in 5% CO2 to allow cell adherence, a further 500 μl of DMEM +penicillin, or DMEM +penicillin plus recombinant mouse IFNγ (rIFNγ) and/or recombinant human TGFβ1 (rTGFβ), were added. In some experiments, penicillin-free DMEM (DMEM −penicillin) was used throughout. Culture supernatants were collected and replaced with fresh medium at 16 hours, then collected again 24 hours later, at which time GM-CSF content was determined and adherent cells were quantified as previously described (Robertson et al., Biol Reprod 46:1069-1079 (1992)). All treatments were performed in duplicate or triplicate. rTGFβ and rIFNγ were obtained from R&D Systems, UK.
# GM-CSF bioassay: GM-CSF was assayed using the GM-CSF dependant cell line FD 5/12, essentially as previously described (Robertson et al., Biol Reprod 46:1069-1079 (1992)). Cell proliferation was determined by pulsing with 1 μCi of [^3H]-thymidine per well for the last 6 h of the assay. The minimal detectable amount of GM-CSF was 20 pg/ml. The identity of the bioactivity in uterine epithelial cell cultures was confirmed using a goat polyclonal antibody to murine GM-CSF (DNAX, Palo Alto, Calif.) as previously described (Robertson et al., Biol Reprod 46:1069-1079 (1992)). GM-CSF production is expressed as ng GM-CSF/10^5 cells/24 h. Recombinant mouse GM-CSF was obtained from R&D Systems.
# [2] = system: uterine luminal fluid content of GM-CSF; experiment: Effect of IFN-γ treatment on GM-CSF content of uterine luminal fluids in mice (Example 7); format: in vivo; details: 5 ng or 20 ng transcervical on day 1 of pregnancy; fluids 7 hrs later; p=0.03 versus PBS control, treatment groups combined
# Procedure: Mice were housed under specific pathogen-free conditions at the University of Adelaide Medical School Animal House on a 12:12 light-dark cycle, and were administered food and water ad libitum. Adult C57B1/6×CBA F1 females (7-10 weeks old) were caged with proven fertile Balb/c males for natural mating. The day of sighting a vaginal plug was nominated day 1 of pregnancy. Mice were randomly allocated to one of three groups and administered transcervical treatments of either 5 ng or 20 ng recombinant mouse IFN-γ (rmIFN-γ; R&D Systems) in 30 μl PBS containing 0.1% bovine serum albumin (PBS-BSA), or PBS-BSA alone (PBS control), at 0900 h on day 1. Treatments were delivered directly into the uterine lumen with the aid of a tom-cat catheter (Sovereign, St Louis Mo.), after removal of vaginal plugs using forceps to allow transcervical access. Mice were sacrificed 7 hrs later at 1600 h on day 1, and uterine luminal fluids were flushed in 1 ml PBS-BSA with a syringe and 26 gauge needle.
# GM-CSF immunoactivity in uterine luminal fluids was measured by commercial mouse GM-CSF specific ELISA (R & D Systems) according to the manufacturer's instructions. Data are given as GM-CSF content in pg/ml uterine luminal fluid.
# [3] = system: murine uterine epithelial cells; experiment: Effect of IFNγ on GM-CSF synthesis in murine uterine epithelial cells (Example 3); format: cell-based, mouse
# Procedure: Uterine Epithelial Cell Cultures. Uterine epithelial cells prepared by pancreatin-trypsin digest as previously described (Robertson et al., (1992) Biol. Reprod. 46:1069-1079) were pooled from 4-6 estrous adult C57B1/6×CBA F1 female mice and plated in 1 ml culture wells (Nunc, Roskilde, Germany) at 1-2×10^5 cells per ml in 500 μl of RPMI containing 10% FCS and streptomycin (RPMI-FCS). Penicillin was omitted from culture media except where specified. After 4 h incubation at 37° C. in 5% CO2 to allow cell adherence, a further 500 μl of cytokines or antibodies in RPMI-FCS, or RPMI-FCS alone, were added. Cytokine treatments included recombinant mouse interferon-γ (rmIFNγ; R&D Systems), recombinant human transforming growth factor β1 (rhTGFβ1, R&D Systems), rhTGFβ2 (R&D Systems), rhTGFβ3 (OSI Pharmaceuticals). Antibody treatments included goat anti-mouse IFNγ receptor 1 (αIFNγR; R&D Systems AF1026) and hamster anti-mouse IFNγ (αIFNγ; R&D Systems MAB4851). Culture supernatants were collected and replaced with fresh complete RPMI-FCS alone at 16 hours, then collected again 24 hours later, at which time adherent cells were quantified as previously described (Robertson et al., (1992) Biol. Reprod. 46:1069-1079). The GM-CSF content of 24 h supernatants was determined by GM-CSF bioassay or immunoassay. All treatments were performed in duplicate or triplicate.
# GM-CSF bioassay and immunoassay: Bioactive GM-CSF was assayed using the GM-CSF dependant cell line FD 5/12, essentially as previously described (Robertson et al., (1992) Biol. Reprod. 46:1069-1079). Cell proliferation was determined by the addition of 1 μCi of [^3H]-thymidine per well for the last 6 h of the assay. […] GM-CSF immunoactivity was in some experiments measured by commercial mouse GM-CSF specific ELISA (R & D Systems) according to the manufacturer's instructions.
molecule,measurement,setting,value
B1,rIFNγ concentrations at which an inhibitory effect was not seen,[1]; DMEM +penicillin,less than 150 pg/ml
same,rIFN-γ concentration eliciting maximal decrease in GM-CSF production,"[1]; DMEM +penicillin, dose-dependent decrease in each of three experiments",≥ 2.5 ng/mL
same,rIFNγ concentration giving maximal decrease in GM-CSF production,"[1]; DMEM -penicillin, three experiments",≥ 2.5 ng/mL
same,rIFNγ concentration at which inhibitory effect was still observed,[1]; absence of penicillin,2 pg/mL
same,lowest effective concentration of rIFNγ,[1]; in the presence of 0.5 ng/ml rTGFβ,39 pg/mL
same,lowest effective inhibitory concentration of rIFNγ,[1]; in the presence of 5 ng/ml of rTGFβ,2.5 ng/mL
same,rIFNγ concentration with maximal inhibition of rTGFβ induction of GM-CSF synthesis,"[1]; rTGFβ-stimulated cells, DMEM +penicillin",≥ 2.5 ng/mL
same,effect on uterine luminal fluid content of GM-CSF,[2],reduce uterine luminal fluid content of GM-CSF
same,IFNγ concentration giving significant inhibition (GM-CSF synthesis <50% of control values),[3],> 150 pg/mL
same,IFNγ concentration inhibiting GM-CSF synthesis (<50% of control values),[3]; absence of penicillin,≥ 9.8 pg/mL
same,IFNγ concentration at which inhibition of GM-CSF synthesis was evident,"[3]; more than six experiments, penicillin omitted",≥ 40 pg/mL
